Experimental data reported in the supplement of paper PMC10724198.
± gives the standard deviation of the averaged measurements.

Tested on: Saccharomyces cerevisiae
Test: protein stability index of tFT-peptide fusion (C-terminal peptide) (PSI (0-1 scale)); higher = more stable (slower turnover)
Conditions: temperature: 30 C
Protocol: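 MPS profiling in S. cerevisiae of the yeast C-terminome library: the last 12 aa of each annotated ORF are fused to the C-terminus of a sfGFP-mCherry timer, after a GGGS linker. Cells are FACS-sorted into 8 mCherry/sfGFP bins and deep-sequenced. PSI runs from 0 (unstable) to 1 (stable); wild type and das1Δ backgrounds, two technical replicates each.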

[1] = genetic background: das1 deletion

Row | Sequence | protein stability index [1] | protein stability index (genetic background: wild type)
1 | RLIGELGKLTED [YNL115C C-terminal 12 aa] | 0.683 ± 0.0088 | 0.701 ± 0.037
2 | LEHGLKVRMDEE [HIS7 C-terminal 12 aa] | 0.7083 ± 0.0038 | 0.72 ± 0.06
3 | NLSEAIHDNNGS [NNK1 C-terminal 12 aa] | 0.717 ± 0.019 | 0.7091 ± 0.00097
4 | EAETPGIIDKHQ [SIS2 C-terminal 12 aa] | 0.689 ± 0.023 | 0.677 ± 0.044
5 | KQAIYTRAAASE [RPS25B C-terminal 12 aa] | 0.682 ± 0.054 | 0.69 ± 0.0061
6 | CMRPANQEIYPL [YLR157W-D C-terminal 12 aa] | 0.704 ± 0.02 | 0.681 ± 0.017
7 | LALNRDDPPDML [PEA2 C-terminal 12 aa] | 0.6989 ± 0.0011 | 0.755 ± 0.13
8 | RRRLTYHRYHPK [YML009C-A C-terminal 12 aa] | 0.731 ± 0.014 | 0.722 ± 0.012
9 | NATYNDSESSLN [SPO13 C-terminal 12 aa] | 0.727 ± 0.016 | 0.721 ± 0.0083
10 | EGPVTIILDSDQ [DTD1 C-terminal 12 aa] | 0.701 ± 0.0098 | 0.7015 ± 0.0042
11 | YVTYSGENTFGR [ATG8 C-terminal 12 aa] | 0.703 ± 0.025 | 0.691 ± 0.021
12 | IRRHAYYNQDDD [SLA2 C-terminal 12 aa] | 0.677 ± 0.02 | 0.664 ± 0.0037
13 | IDLSKKLSFYNY [GMH1 C-terminal 12 aa] | 0.685 ± 0.043 | 0.554 ± 0.0067
14 | LTSMSARIAFDN [AAD14 C-terminal 12 aa] | 0.7219 ± 0.0034 | 0.699 ± 0.024
15 | KKDKPEGWDRLP [KTR6 C-terminal 12 aa] | 0.728 ± 0.046 | 0.711 ± 0.0073
16 | IPAKKTKISLDY [ELP4 C-terminal 12 aa] | 0.6845 ± 0.0032 | 0.677 ± 0.018
17 | STSGESFTETQF [ICL2 C-terminal 12 aa] | 0.6971 ± 0.0022 | 0.73 ± 0.054
18 | NKEYWMKHKKPQ [PDE2 C-terminal 12 aa] | 0.688 ± 0.0074 | 0.762 ± 0.013
19 | ILGAYLIDCVCC [YGL069C C-terminal 12 aa] | 0.576 ± 0.045 | 0.644 ± 0.1
20 | YPKFIKGHEEYF [BSC6 C-terminal 12 aa] | 0.702 ± 0.035 | 0.715 ± 0.0089
21 | LRRLTSPSRTQP [BAG7 C-terminal 12 aa] | 0.71894 ± 0.00039 | 0.705 ± 0.012

Row | Sequence | protein stability index [1] | protein stability index (genetic background: wild type)
22 | SGGWDRSIKLWN [PRP4 C-terminal 12 aa] | 0.711 ± 0.01 | 0.681 ± 0.026
23 | SSKAIQGNFDDL [SPB4 C-terminal 12 aa] | 0.704 ± 0.018 | 0.714 ± 0.047
24 | IIFVVLLCKKSR [ASG7 C-terminal 12 aa] | 0.299 ± 0.019 | 0.309 ± 0.019
25 | LYELKGLLGNDS [INP2 C-terminal 12 aa] | 0.681 ± 0.021 | 0.673 ± 0.032
26 | KTFKLLTNKWIH [YAR009C C-terminal 12 aa] | 0.704 ± 0.018 | 0.587 ± 0.014
27 | GPYWKRVLDFWC [GNP1 C-terminal 12 aa] | 0.752 ± 0.012 | 0.739 ± 0.029
28 | FKAKFRKVKINA [YKR015C C-terminal 12 aa] | 0.6339 ± 0.0053 | 0.134 ± 0.0025
29 | GDEEDPNEEAAF [RPC31 C-terminal 12 aa] | 0.692 ± 0.01 | 0.673 ± 0.027
30 | TEKKINTRPPFR [DAM1 C-terminal 12 aa] | 0.7012 ± 0.0011 | 0.656 ± 0.011
31 | GARPPKNEARII [YBL036C C-terminal 12 aa] | 0.694 ± 0.011 | 0.677 ± 0.038
32 | RKPPGFFDEGFM [FLC3 C-terminal 12 aa] | 0.733 ± 0.061 | 0.6965 ± 0.0051
33 | IFWLALIYNAIQ [LOH1 C-terminal 12 aa] | 0.479 ± 0.016 | 0.43 ± 0.027
34 | LQESKSQEKNKI [MRX19 C-terminal 12 aa] | 0.7135 ± 0.0016 | 0.782 ± 0.06
35 | EKKFKEILNIQW [PET112 C-terminal 12 aa] | 0.709 ± 0.025 | 0.722 ± 0.01
36 | LYAFHQVGIHFS [DIM1 C-terminal 12 aa] | 0.709 ± 0.032 | 0.685 ± 0.014
37 | TVIFSCVPGRRV [RAX1 C-terminal 12 aa] | 0.7205 ± 0.0062 | 0.709 ± 0.0011
38 | TLKKRFGLVPGQ [NOP10 C-terminal 12 aa] | 0.7141 ± 0.0036 | 0.686 ± 0.029
39 | PTWQIVEDIRNT [PMT3 C-terminal 12 aa] | 0.728 ± 0.025 | 0.718 ± 0.038
40 | LQALIIVQVMFS [YLL059C C-terminal 12 aa] | 0.128 ± 0.025 | 0.157 ± 0.013
41 | NEIATKLEETKL [TYS1 C-terminal 12 aa] | 0.694 ± 0.037 | 0.687 ± 0.0072
42 | FIKLSLASSFSN [ISF1 C-terminal 12 aa] | 0.7094 ± 0.0028 | 0.661 ± 0.022

Row | Sequence | protein stability index [1] | protein stability index (genetic background: wild type)
43 | AFTRRRFMNKSL [ARC18 C-terminal 12 aa] | 0.69 ± 0.012 | 0.485 ± 0.034
44 | FVAKEIADDSKK [TIM12 C-terminal 12 aa] | 0.684 ± 0.016 | 0.709 ± 0.03
45 | KKHSMKSRFKPY [YNL035C C-terminal 12 aa] | 0.696 ± 0.029 | 0.712 ± 0.0099
46 | LDAEYYIKFASK [ERD1 C-terminal 12 aa] | 0.6942 ± 0.0061 | 0.69 ± 0.024
47 | DEKTLDSIGNSL [VCX1 C-terminal 12 aa] | 0.701 ± 0.0096 | 0.696 ± 0.013
48 | IYRRRKNKIFFW [RCK1 C-terminal 12 aa] | 0.705 ± 0.012 | 0.692 ± 0.045
49 | RKESSGGCCIIC [RAS1 C-terminal 12 aa] | 0.738 ± 0.014 | 0.709 ± 0.011
50 | YLIKNPGYPIVF [OST6 C-terminal 12 aa] | 0.621 ± 0.0095 | 0.6361 ± 0.0047
51 | QCPVCRSPLPPL [TUL1 C-terminal 12 aa] | 0.714 ± 0.023 | 0.742 ± 0.013
52 | RDFFFKNVCVKM [TBS1 C-terminal 12 aa] | 0.623 ± 0.018 | 0.56 ± 0.0057
53 | GCGCNCPEMFDA [MTC5 C-terminal 12 aa] | 0.6906 ± 0.0026 | 0.695 ± 0.029
54 | RLLNLQKVIYST [LDB18 C-terminal 12 aa] | 0.662 ± 0.013 | 0.493 ± 0.064
55 | PKWTDCEGDLTT [DET1 C-terminal 12 aa] | 0.712 ± 0.011 | 0.7387 ± 0.0071
56 | IWKEVKRHQDFA [ATG20 C-terminal 12 aa] | 0.7235 ± 0.0023 | 0.734 ± 0.0089
57 | FRNYRGHYRGRK [SGS1 C-terminal 12 aa] | 0.705 ± 0.03 | 0.685 ± 0.039
58 | NSFELNDFFITS [HAC1 C-terminal 12 aa] | 0.7145 ± 0.0011 | 0.74 ± 0.031
59 | DAFTDPRQYHLT [BUD19 C-terminal 12 aa] | 0.717 ± 0.0052 | 0.69 ± 0.0082
60 | TKISIRKAPKFF [MRPL31 C-terminal 12 aa] | 0.701 ± 0.019 | 0.656 ± 0.024
61 | TLVADQEDDVIF [VMA8 C-terminal 12 aa] | 0.7039 ± 0.0067 | 0.715 ± 0.025
62 | AGTENDEEEFNI [PSF2 C-terminal 12 aa] | 0.674 ± 0.018 | 0.672 ± 0.044
63 | IKELENSRHEQS [MNN1 C-terminal 12 aa] | 0.713 ± 0.049 | 0.6866 ± 7.9e-05

Row | Sequence | protein stability index [1] | protein stability index (genetic background: wild type)
64 | DLVKAAAGSDNE [RRP15 C-terminal 12 aa] | 0.6823 ± 0.0059 | 0.675 ± 0.018
65 | VLESFLAPMVNQ [BET5 C-terminal 12 aa] | 0.688 ± 0.0073 | 0.71 ± 0.061
66 | GPYWKRVVAFWC [AGP1 C-terminal 12 aa] | 0.734 ± 0.017 | 0.549 ± 0.011
67 | GYQRGLDEFNKY [MRX18 C-terminal 12 aa] | 0.7148 ± 0.0013 | 0.681 ± 0.04
68 | SNSSSSQKAAKE [HST2 C-terminal 12 aa] | 0.71 ± 0.033 | 0.651 ± 0.024
69 | PIIKEILQEYES [DNA2 C-terminal 12 aa] | 0.6914 ± 0.0039 | 0.729 ± 0.013
70 | QELLKLLENEKK [SLK19 C-terminal 12 aa] | 0.727 ± 0.029 | 0.726 ± 0.047
71 | YSWMQPESGWNP [YER188W C-terminal 12 aa] | 0.738 ± 0.011 | 0.722 ± 0.032
72 | YNPPDYEPEAKK [PHM7 C-terminal 12 aa] | 0.6998 ± 0.0052 | 0.639 ± 0.008
73 | IFQSAISKAIRG [YBR109W-A C-terminal 12 aa] | 0.6726 ± 0.0032 | 0.682 ± 0.0053
74 | QSLVESPPPYVP [SNA4 C-terminal 12 aa] | 0.6915 ± 0.0048 | 0.7 ± 0.015
75 | VKDKVDAVYSSS [FAA1 C-terminal 12 aa] | 0.6925 ± 0.0045 | 0.678 ± 0.011
76 | REKAEAEAEKKK [RPL13A C-terminal 12 aa] | 0.704 ± 0.014 | 0.68 ± 0.0053
77 | ALLDGFVTAAGY [DAK2 C-terminal 12 aa] | 0.745 ± 0.027 | 0.728 ± 0.016
78 | LSNIITLCRIIV [PEX34 C-terminal 12 aa] | 0.465 ± 0.0065 | 0.319 ± 0.0077
79 | GFIRGSNKFAEV [SMC3 C-terminal 12 aa] | 0.6866 ± 0.0044 | 0.6658 ± 0.0058
80 | PPSDPSSIKIRN [KIN28 C-terminal 12 aa] | 0.71109 ± 0.00022 | 0.729 ± 0.0076
81 | YERERKLRGGKK [NOP14 C-terminal 12 aa] | 0.702 ± 0.027 | 0.692 ± 0.072
82 | LGYTDDEIYNRQ [SER2 C-terminal 12 aa] | 0.706 ± 0.026 | 0.681 ± 0.036
